From paper PMC11844651, “How RAG1/2 evolved from ancestral transposases to initiate V(D)J recombination without transposition” (Research Square, 2025)

Target: T1, mouse RAG1 (aa 265–1040) (mouse, UniProt P15919 265-1040)
T1 sequence (looked up): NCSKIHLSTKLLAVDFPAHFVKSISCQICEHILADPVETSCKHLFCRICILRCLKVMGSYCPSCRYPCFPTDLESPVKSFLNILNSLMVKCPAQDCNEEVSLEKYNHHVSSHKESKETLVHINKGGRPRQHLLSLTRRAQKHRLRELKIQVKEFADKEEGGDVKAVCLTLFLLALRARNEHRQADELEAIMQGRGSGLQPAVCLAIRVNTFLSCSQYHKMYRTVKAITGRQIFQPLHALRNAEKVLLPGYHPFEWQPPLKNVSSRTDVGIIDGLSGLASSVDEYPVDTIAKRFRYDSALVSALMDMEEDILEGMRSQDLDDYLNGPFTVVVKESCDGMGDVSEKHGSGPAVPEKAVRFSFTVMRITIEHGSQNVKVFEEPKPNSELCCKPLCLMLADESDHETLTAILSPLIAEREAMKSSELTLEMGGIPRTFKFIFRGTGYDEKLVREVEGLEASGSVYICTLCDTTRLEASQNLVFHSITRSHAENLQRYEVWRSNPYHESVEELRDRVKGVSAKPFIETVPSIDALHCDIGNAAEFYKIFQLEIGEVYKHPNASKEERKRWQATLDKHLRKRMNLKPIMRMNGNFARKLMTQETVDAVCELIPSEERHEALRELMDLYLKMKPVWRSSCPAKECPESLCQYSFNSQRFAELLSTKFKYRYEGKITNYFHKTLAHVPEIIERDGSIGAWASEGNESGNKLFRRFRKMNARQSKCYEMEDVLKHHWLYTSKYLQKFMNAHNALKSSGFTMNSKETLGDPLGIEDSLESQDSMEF
Assay: cell-based or functional assay

- RSS DNA hairpinning (pre-nicked RSS substrates) with the long (21 aa) H3K4me3 peptide (1 μM) against no peptide: < 2 fold
- transposition of SEC into supercoiled pUC19 (double-ended joint product) with the long (21 aa) H3K4me3 peptide (20 μM) against no peptide: 22 fold
B1: mouse T490A RAG2 (aa 1–520) (natural protein, UniProt P21784 1-520, looked up)
chain: MSLQMVTVGHNIALIQPGFSLMNFDGQVFFFGQKGWPKRSCPTGVFHFDIKQNHLKLKPAIFSKDSCYLPPLRYPATCSYKGSIDSDKHQYIIHGGKTPNNELSDKIYIMSVACKNNKKVTFRCTEKDLVGDVPEPRYGHSIDVVYSRGKSMGVLFGGRSYMPSTQRTTEKWNSVADCLPHVFLIDFEFGCATSYILPELQDGLSFHVSIARNDTVYILGGHSLASNIRPANLYRIRVDLPLGTPAVNCTVLPGGISVSSAILTQTNNDEFVIVGGYQLENQKRMVCSLVSLGDNTIEISEMETPDWTSDIKHSKIWFGSNMGNGTIFLGIPGDNKQAMSEAFYFYTLRCSEEDLSEDQKIVSNSQTSTEDPGDSTPFEDSEEFCFSAEATSFDGDDEFDTYNEDDEDDESVTGYWITCCPTCDVDINTWVPFYSTELNKPAMIYCSHGDGHWVHAQCMDLEERTLIHLSEGSNKYYCNEHVQIARALQAPKRNPPLQKPPMKSLHKKGSGKVLTPAKKS
